Experimental data reported in the supplement of paper PMC10065799, “High-throughput profiling of sequence recognition by tyrosine kinases and SH2 domains using bacterial peptide display” (eLife, 2023).

Experiments:
SHP2-C SH2 = experiment: SH2 binding enrichment of the phosphorylated peptide, bacterial display (enrichment ratio); higher = better substrate or ligand; peptides without Tyr show the background
c-Src SH2 = experiment: as above
Grb2 SH2 = Grb2 SH2 (UniProt P62993); experiment: as above
Jak2 = Jak2 (UniProt O60674); experiment: phosphorylation enrichment, bacterial display (enrichment ratio); higher = better substrate or ligand; peptides without Tyr show the background
c-Src = experiment: as above
Hck = Hck (UniProt P08631); experiment: as above
FGFR1 = FGFR1 (UniProt P11362); experiment: as above
EPHB1 = EPHB1 (UniProt P54762); experiment: as above
FGFR3 = FGFR3 (UniProt P22607); experiment: as above
MERTK = MERTK (UniProt Q12866); experiment: as above
c-Abl (mouse) = experiment: as above
Fes = Fes (UniProt P07332); experiment: as above
Fyn = Fyn (UniProt P06241); experiment: as above
Fer (mouse) = experiment: as above
EPHB2 = EPHB2 (UniProt P29323); experiment: as above
AncSZ = experiment: as above
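For SH2 binding enrichment of the phosphorylated peptide, bacterial display in this document: peptide library displayed on the E. coli surface as eCPX fusions, selected cells deep-sequenced, score is each peptide's frequency after selection divided by its frequency in the input.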
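For phosphorylation enrichment, bacterial display in this document: 11-residue human phosphosite peptides and single-mutation variants displayed on the E. coli surface, counted by deep sequencing, each peptide's frequency after selection divided by its frequency in the unselected input library; frequency after pTyr selection over input frequency; kinase dosed for 20-30% of maximal phosphorylation in three min.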

Chain of MERTK (Q12866 whole entry, looked up): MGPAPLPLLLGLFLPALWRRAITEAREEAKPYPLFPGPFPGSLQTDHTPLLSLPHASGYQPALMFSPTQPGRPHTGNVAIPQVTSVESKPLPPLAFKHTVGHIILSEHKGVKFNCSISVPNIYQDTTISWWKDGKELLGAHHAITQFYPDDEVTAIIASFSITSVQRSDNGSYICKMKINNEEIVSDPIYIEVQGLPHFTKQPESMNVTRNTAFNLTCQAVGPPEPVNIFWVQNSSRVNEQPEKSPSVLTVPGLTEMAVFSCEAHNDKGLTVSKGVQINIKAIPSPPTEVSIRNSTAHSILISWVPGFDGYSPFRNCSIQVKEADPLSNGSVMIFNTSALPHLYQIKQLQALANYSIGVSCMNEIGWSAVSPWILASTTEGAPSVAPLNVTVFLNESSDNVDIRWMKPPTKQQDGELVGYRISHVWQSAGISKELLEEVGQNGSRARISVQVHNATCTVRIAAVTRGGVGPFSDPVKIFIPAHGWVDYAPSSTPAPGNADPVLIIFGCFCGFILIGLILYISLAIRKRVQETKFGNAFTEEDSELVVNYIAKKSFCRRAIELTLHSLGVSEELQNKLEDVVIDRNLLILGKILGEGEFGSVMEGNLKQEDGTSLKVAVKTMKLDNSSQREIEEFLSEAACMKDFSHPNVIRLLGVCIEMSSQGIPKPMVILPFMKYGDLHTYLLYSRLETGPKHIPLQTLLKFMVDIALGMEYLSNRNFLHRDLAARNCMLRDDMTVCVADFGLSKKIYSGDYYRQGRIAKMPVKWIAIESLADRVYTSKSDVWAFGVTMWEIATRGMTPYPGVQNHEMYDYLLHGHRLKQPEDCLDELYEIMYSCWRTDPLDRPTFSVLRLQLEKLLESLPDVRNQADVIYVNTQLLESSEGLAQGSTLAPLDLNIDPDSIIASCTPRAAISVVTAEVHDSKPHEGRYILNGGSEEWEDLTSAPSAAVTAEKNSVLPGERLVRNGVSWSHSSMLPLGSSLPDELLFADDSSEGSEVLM
Chain of FGFR1 (P11362 whole entry, looked up): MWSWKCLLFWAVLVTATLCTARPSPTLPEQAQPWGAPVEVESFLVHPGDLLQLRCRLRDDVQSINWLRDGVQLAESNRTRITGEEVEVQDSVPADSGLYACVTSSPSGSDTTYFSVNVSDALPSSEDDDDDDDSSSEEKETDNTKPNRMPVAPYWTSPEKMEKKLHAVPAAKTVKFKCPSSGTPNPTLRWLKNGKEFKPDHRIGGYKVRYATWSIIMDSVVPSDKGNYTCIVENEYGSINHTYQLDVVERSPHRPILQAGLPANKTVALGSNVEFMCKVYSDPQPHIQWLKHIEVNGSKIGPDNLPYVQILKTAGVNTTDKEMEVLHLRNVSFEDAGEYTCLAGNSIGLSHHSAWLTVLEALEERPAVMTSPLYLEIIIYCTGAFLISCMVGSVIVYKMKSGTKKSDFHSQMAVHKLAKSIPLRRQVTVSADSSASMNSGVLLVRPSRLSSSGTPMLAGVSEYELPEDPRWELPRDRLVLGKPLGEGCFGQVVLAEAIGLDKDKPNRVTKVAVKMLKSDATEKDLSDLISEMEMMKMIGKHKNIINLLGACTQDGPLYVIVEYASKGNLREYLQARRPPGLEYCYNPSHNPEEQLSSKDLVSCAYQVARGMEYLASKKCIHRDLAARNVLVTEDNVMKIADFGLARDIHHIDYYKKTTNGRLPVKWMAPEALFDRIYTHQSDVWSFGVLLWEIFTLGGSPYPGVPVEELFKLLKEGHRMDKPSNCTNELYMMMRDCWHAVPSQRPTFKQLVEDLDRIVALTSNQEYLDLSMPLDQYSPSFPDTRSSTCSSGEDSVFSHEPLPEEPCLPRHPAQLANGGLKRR
Chain of EPHB1 (P54762 whole entry, looked up): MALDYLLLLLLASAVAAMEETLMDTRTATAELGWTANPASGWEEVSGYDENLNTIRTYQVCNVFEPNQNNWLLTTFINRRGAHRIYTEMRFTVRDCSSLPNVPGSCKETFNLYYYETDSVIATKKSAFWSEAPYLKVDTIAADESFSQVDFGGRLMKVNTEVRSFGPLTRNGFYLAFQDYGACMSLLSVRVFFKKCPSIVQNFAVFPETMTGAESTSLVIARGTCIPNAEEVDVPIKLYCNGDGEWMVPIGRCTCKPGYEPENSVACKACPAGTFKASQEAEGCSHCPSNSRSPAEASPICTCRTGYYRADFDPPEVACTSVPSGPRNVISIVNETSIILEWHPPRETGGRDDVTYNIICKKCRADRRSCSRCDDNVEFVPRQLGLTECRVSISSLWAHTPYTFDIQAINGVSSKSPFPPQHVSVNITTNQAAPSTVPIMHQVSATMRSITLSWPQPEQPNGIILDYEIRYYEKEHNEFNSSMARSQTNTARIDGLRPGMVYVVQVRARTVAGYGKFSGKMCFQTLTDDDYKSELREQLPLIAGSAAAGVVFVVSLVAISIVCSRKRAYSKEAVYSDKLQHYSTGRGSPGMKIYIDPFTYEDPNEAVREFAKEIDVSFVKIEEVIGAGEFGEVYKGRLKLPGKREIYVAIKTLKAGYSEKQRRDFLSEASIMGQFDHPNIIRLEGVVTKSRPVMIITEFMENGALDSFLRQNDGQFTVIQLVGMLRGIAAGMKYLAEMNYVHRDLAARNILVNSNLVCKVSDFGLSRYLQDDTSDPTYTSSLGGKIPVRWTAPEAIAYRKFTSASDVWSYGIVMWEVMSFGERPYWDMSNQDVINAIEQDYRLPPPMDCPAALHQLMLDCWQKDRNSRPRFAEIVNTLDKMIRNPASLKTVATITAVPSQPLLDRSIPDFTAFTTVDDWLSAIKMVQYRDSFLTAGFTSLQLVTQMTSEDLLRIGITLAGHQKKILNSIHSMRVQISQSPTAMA
Chain of Fes (P07332 whole entry, looked up): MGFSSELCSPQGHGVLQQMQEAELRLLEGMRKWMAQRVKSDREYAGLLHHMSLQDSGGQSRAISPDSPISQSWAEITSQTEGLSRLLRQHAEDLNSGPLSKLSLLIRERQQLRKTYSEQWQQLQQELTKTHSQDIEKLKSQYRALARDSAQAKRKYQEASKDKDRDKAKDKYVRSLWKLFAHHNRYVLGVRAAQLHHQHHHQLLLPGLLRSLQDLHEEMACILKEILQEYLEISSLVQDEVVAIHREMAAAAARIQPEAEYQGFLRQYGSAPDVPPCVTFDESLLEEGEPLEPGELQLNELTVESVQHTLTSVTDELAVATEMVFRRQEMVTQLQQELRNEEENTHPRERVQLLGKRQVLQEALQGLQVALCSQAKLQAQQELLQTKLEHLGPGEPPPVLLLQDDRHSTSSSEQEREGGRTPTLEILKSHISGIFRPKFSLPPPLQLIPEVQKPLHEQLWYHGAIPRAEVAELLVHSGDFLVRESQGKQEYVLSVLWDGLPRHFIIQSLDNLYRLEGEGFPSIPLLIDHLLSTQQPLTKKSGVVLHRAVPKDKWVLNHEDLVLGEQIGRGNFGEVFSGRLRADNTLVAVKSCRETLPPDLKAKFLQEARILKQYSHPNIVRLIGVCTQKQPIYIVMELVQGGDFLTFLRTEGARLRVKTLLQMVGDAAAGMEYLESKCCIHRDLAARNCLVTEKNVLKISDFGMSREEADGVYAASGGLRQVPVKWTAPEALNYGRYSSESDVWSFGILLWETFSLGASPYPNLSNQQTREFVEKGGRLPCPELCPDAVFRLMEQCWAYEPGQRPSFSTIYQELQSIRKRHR
Chain of FGFR3 (P22607 whole entry, looked up): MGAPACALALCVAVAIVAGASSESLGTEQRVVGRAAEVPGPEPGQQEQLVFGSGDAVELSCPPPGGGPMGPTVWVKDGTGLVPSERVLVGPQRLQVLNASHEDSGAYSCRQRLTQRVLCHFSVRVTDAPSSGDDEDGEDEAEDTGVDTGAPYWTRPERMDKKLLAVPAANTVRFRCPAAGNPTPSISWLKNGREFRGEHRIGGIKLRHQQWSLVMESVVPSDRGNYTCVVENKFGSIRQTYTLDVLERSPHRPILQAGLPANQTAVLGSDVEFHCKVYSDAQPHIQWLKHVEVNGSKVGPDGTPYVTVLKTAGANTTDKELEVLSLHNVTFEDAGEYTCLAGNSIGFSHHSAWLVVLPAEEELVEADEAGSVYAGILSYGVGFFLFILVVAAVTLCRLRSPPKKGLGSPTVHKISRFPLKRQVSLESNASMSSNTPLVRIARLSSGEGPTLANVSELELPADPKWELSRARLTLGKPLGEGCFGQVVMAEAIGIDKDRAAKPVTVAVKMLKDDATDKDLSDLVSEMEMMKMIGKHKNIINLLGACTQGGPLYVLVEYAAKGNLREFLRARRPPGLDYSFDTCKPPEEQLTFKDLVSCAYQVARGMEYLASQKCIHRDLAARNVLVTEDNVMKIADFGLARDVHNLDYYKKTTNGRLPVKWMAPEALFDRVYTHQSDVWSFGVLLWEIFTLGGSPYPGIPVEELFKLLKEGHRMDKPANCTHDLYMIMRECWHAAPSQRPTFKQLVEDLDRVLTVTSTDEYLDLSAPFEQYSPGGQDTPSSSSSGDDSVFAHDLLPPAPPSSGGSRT
Chain of Grb2 SH2 (P62993 whole entry, looked up): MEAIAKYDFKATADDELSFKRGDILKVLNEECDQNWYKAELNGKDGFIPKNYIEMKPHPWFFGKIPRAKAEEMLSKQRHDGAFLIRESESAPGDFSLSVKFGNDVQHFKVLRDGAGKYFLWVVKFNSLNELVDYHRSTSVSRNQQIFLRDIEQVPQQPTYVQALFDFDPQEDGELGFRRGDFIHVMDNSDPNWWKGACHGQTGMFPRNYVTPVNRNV

| Sequence | SH2 binding enrichment (SHP2-C SH2) | SH2 binding enrichment (c-Src SH2) | SH2 binding enrichment (Grb2 SH2) | phosphorylation enrichment (Jak2) | phosphorylation enrichment (c-Src) | phosphorylation enrichment (Hck) | phosphorylation enrichment (FGFR1) | phosphorylation enrichment (EPHB1) | phosphorylation enrichment (FGFR3) | phosphorylation enrichment (MERTK) | phosphorylation enrichment (c-Abl (mouse)) | phosphorylation enrichment (Fes) | phosphorylation enrichment (Fyn) | phosphorylation enrichment (Fer (mouse)) | phosphorylation enrichment (EPHB2) | phosphorylation enrichment (AncSZ) |
| --- | --- | --- | --- | --- | --- | --- | --- | --- | --- | --- | --- | --- | --- | --- | --- | --- |
| MDDPRYGMCPL [ZNF100_Y6] | 0.506 | 0.522 | 0.632 | 1.27 | 0.685 | 0.56 | 0.538 | 0.687 | 0.838 | 0.56 | 1.01 | 1.38 | 0.721 | 0.607 | 0.675 | 1.16 |
| MFNPYYGLFEY [NEDD4L_Y680] | 1.64 | 1.75 | 1.56 | 7.13 | 5.76 | 7.23 | 8.53 | 7.89 | 7.3 | 7.1 | 5.87 | 2.16 | 7.66 | 7.76 | 9.35 | 2.18 |
| MHDSNSVSKGS [PDGFRA_Y849_Y849S] | 0.595 | 0.465 | 0.787 | 0.687 | 0.428 | 0.432 | 0.402 | 0.282 | 0.329 | 0.448 | 0.424 | 0.523 | 0.381 | 0.392 | 0.374 | 0.445 |
| MSGDVYSTDFF [NTRK2_Y702_R699G_YF] | 1.15 | 0.526 | 0.701 | 0.959 | 4.62 | 2.4 | 1.42 | 1.02 | 1.18 | 6.82 | 0.736 | 1.06 | 5.33 | 0.775 | 1.32 | 1.08 |
| MSGDVYSTDYY [NTRK2_Y702_R699G] | 0.874 | 0.622 | 0.778 | 1.05 | 4.64 | 2.39 | 3.16 | 1.58 | 2.29 | 6.54 | 0.784 | 1.16 | 4.31 | 0.863 | 1.99 | 1.99 |
| MSLDQYSPSFP [FGFR1_Y776_P772S] | 0.646 | 0.45 | 0.825 | 0.929 | 0.454 | 0.481 | 0.468 | 0.374 | 0.549 | 0.44 | 0.598 | 0.782 | 0.551 | 0.429 | 0.465 | 0.68 |
| MSPPGYKLVNG [GJA1_Y286_T290N] | 0.609 | 0.439 | 0.837 | 0.564 | 0.461 | 0.448 | 0.58 | 0.403 | 0.438 | 0.412 | 0.52 | 0.561 | 0.412 | 0.315 | 0.38 | 0.429 |
| MSSHHYDYKKY [ZNF445_Y428] | 0.692 | 0.64 | 0.799 | 0.441 | 0.383 | 0.421 | 0.338 | 0.394 | 0.46 | 0.339 | 0.438 | 0.513 | 0.415 | 0.408 | 0.375 | 0.503 |
| MVIPNYSSWTE [UROC1_Y185_R188W] | 0.812 | 0.735 | 0.864 | 1.16 | 0.719 | 0.862 | 1.11 | 11.1 | 1.07 | 3.74 | 0.999 | 1.23 | 0.689 | 1.78 | 13.5 | 1.31 |
| NALAQYQEMEK [BBS4_Y395] | 0.808 | 3.07 | 0.795 | 0.714 | 0.366 | 0.612 | 0.594 | 0.466 | 0.658 | 0.467 | 0.512 | 0.967 | 0.545 | 0.454 | 0.471 | 1.1 |
| NDQANYSLNTD [ADA_Y290] | 0.696 | 0.554 | 0.764 | 0.981 | 0.535 | 0.465 | 0.566 | 0.623 | 0.749 | 0.561 | 0.814 | 0.982 | 0.585 | 0.498 | 0.68 | 0.966 |
| NFDRIYIFHLR [MYOF_Y1137_V1136I_YF] | 2.07 | 1.15 | 1.59 | 1.46 | 0.724 | 0.507 | 0.594 | 0.732 | 0.791 | 0.524 | 0.993 | 1.42 | 0.605 | 0.606 | 0.705 | 1.53 |
| NGPDVYVLPLT [AATK_Y93] | 0.743 | 0.552 | 0.804 | 0.8 | 1.04 | 0.671 | 0.685 | 0.626 | 0.613 | 1.69 | 0.645 | 0.792 | 2.32 | 0.414 | 0.511 | 1.33 |
| NGRQCYSCRGN [PLAUR_Y217_K220R] | 0.769 | 1.31 | 1.03 | 0.39 | 0.294 | 0.35 | 0.356 | 0.261 | 0.31 | 0.346 | 0.374 | 0.461 | 0.299 | 0.274 | 0.319 | 0.375 |
| NGTVSYAIVAG [CDH23_Y1672_T1671S] | 46.5 | 3.88 | 0.873 | 0.703 | 0.456 | 0.479 | 0.496 | 0.661 | 0.593 | 0.792 | 0.591 | 0.961 | 0.638 | 0.448 | 0.575 | 0.778 |
| NHQFDYTFHWT [CSNK1A1_Y294_D297H_YF] | 1.05 | 0.523 | 1.09 | 1.09 | 0.996 | 0.47 | 3.83 | 1.55 | 2.26 | 0.573 | 0.803 | 1.08 | 0.507 | 5.97 | 1.3 | 1.49 |
| NHYKICNLCAE [PTEN_Y68_Y68C] | 0.956 | 0.97 | 1.12 | 0.613 | 0.372 | 0.378 | 0.488 | 0.376 | 0.519 | 0.45 | 0.571 | 0.691 | 0.4 | 0.384 | 0.395 | 0.663 |
| NHYKRYNLCAE [PTEN_Y68_I67R] | 0.769 | 0.662 | 0.93 | 0.744 | 0.508 | 0.542 | 0.557 | 0.467 | 0.554 | 0.446 | 0.709 | 0.82 | 0.512 | 0.488 | 0.516 | 0.74 |
| NIRKKYYRAIL [CHD7_Y1217_Q1214R] | 0.426 | 0.368 | 0.599 | 0.494 | 0.442 | 0.395 | 0.501 | 0.455 | 0.341 | 0.507 | 0.462 | 0.547 | 0.443 | 0.388 | 0.311 | 0.569 |
| NKKHHYRELPV [ERN2_Y860] | 1.48 | 1.41 | 1.62 | 2.67 | 0.996 | 1.01 | 0.826 | 0.855 | 2.45 | 0.795 | 2.31 | 1.97 | 0.669 | 1.22 | 0.773 | 1.04 |
| NNFGNYNNQSS [HNRNPA1_Y318_D314N] | 0.607 | 0.337 | 0.805 | 0.432 | 0.32 | 0.354 | 0.381 | 0.366 | 0.708 | 0.326 | 0.626 | 0.632 | 0.382 | 0.379 | 0.393 | 0.564 |
| NPQKPYFIRLF [WAS_Y83_S82P_YF] | 0.924 | 0.504 | 0.919 | 0.878 | 0.373 | 0.479 | 0.511 | 0.633 | 0.637 | 0.423 | 0.423 | 1 | 0.438 | 0.457 | 0.579 | 1.17 |
| NPQKSCFIRLF [WAS_Y83_Y83C_YF] | 0.817 | 0.631 | 0.862 | 0.974 | 0.453 | 0.526 | 0.583 | 0.606 | 0.704 | 0.467 | 0.848 | 1.18 | 0.459 | 0.47 | 0.578 | 1.06 |
| NQLNDYIFSFD [RARS1_Y516_R512Q] | 0.632 | 0.553 | 0.928 | 1.08 | 0.598 | 0.546 | 0.946 | 0.525 | 0.807 | 0.46 | 0.733 | 1.27 | 0.743 | 0.461 | 0.549 | 1.42 |
| NRLTDYYELLL [BBS10_Y536_P539L] | 0.83 | 1.16 | 1.19 | 1.68 | 1.69 | 1.46 | 11.9 | 2.44 | 10.1 | 3.04 | 1.15 | 1.17 | 1.1 | 1.98 | 1.66 | 1.64 |
| NTDETYCIDNK [TUBB3_Y200_E205K] | 0.955 | 0.572 | 0.96 | 1.37 | 0.976 | 0.592 | 0.53 | 0.721 | 0.783 | 0.407 | 0.834 | 1.34 | 0.781 | 0.729 | 0.577 | 1.23 |
| NTEGGYCCICA [CRELD1_Y328_R329C] | 0.693 | 0.632 | 0.704 | 0.878 | 0.529 | 0.911 | 0.562 | 0.497 | 0.668 | 0.673 | 0.894 | 0.966 | 0.512 | 0.583 | 0.657 | 1.02 |
| NTGDFYDLFGG [PTPN11_Y63_YF] | 0.628 | 0.615 | 1.14 | 0.985 | 4.45 | 3.44 | 0.582 | 0.587 | 0.709 | 2.97 | 0.773 | 1.06 | 4.89 | 1.82 | 0.632 | 1.23 |
| NTGNFYDLFGG [PTPN11_Y63_D61N_YF] | 0.833 | 0.887 | 1.19 | 0.796 | 4.88 | 4.7 | 0.537 | 0.436 | 0.641 | 7.84 | 0.766 | 0.955 | 6.58 | 3.08 | 0.548 | 0.844 |
